Laboratory results from patent US20230135471A1, “UBIQUITIN VARIANTS WITH IMPROVED AFFINITY FOR 53BP1” (Integrated DNA Technologies, Inc., priority 2021, published 2023).

Molecular target: 53BP1 fragment (a.a. 1221-1718) fused to an adenylate cyclase fragment (two-hybrid) (UniProt Q12888)
Assay: cell-based or functional assay

| Substance | Experiment 1 Average Enrichment [log2] | Experiment 1 Rep 1 Enrichment [log2] | Experiment 1 Rep 2 Enrichment [log2] | Experiment 2 Average Enrichment [log2] | Experiment 2 Rep 1 Enrichment [log2] | Experiment 2 Rep 2 Enrichment [log2] | Percent GFP Positive Rep 1 [%] | Percent GFP Positive Rep 2 [%] | Percent GFP Positive Rep 3 [%] |
| --- | --- | --- | --- | --- | --- | --- | --- | --- | --- |
| i53 + K33W two-hybrid fusion (designed binder) | -1.01 | -2.04 | 0.01 | 0.15 | 0.35 | -0.06 |  |  |  |
| i53 + K33Y two-hybrid fusion (designed binder) | 1.02 | 0.63 | 1.41 | 0.98 | 1.03 | 0.94 |  |  |  |
| i53 + K48I two-hybrid fusion (designed binder) | 0.64 | 0.5 | 0.77 | 0.42 | 0.35 | 0.49 |  |  |  |
| i53 + K48L two-hybrid fusion (designed binder) | 0.05 | 0.05 | 0.04 | 0.2 | 0.28 | 0.12 |  |  |  |
| i53 + K48M two-hybrid fusion (designed binder) | 0.91 | 0.87 | 0.94 | 0.67 | 0.63 | 0.7 |  |  |  |
| i53 + K48N two-hybrid fusion (designed binder) | -0.04 | -0.15 | 0.08 | 0.06 | 0.09 | 0.03 |  |  |  |
| i53 + K48Q two-hybrid fusion (designed binder) | 0.55 | 0.59 | 0.51 | 0.34 | 0.2 | 0.47 |  |  |  |
| i53 + K48R two-hybrid fusion (designed binder) | 0.35 | 0.39 | 0.32 | 0.14 | 0.09 | 0.19 |  |  |  |
| i53 + K48V two-hybrid fusion (designed binder) | 0.54 | 0.59 | 0.48 | 0.34 | 0.23 | 0.46 |  |  |  |
| i53 + K63F two-hybrid fusion (designed binder) | -0.02 | -0.01 | -0.02 | 0.08 | -0.06 | 0.22 |  |  |  |
| i53 + K63M two-hybrid fusion (designed binder) | -0.07 | -0.24 | 0.09 | 0.2 | 0.18 | 0.22 |  |  |  |
| i53 + K63V two-hybrid fusion (designed binder) | -0.13 | -0.15 | -0.11 | 0.01 | 0 | 0.02 |  |  |  |
| i53 + K66R two-hybrid fusion (designed binder) | -0.69 | -0.84 | -0.54 | 0.55 | 0.13 | 0.97 |  |  |  |
| i53 + L67C two-hybrid fusion (designed binder) | 0.04 | -0.31 | 0.39 | 0.73 | 0.96 | 0.5 |  |  |  |
| i53 + L67K two-hybrid fusion (designed binder) | 2.01 | 2.08 | 1.93 | 0.89 | 1.4 | 0.39 | 24.2 | 11.2 | 21.5 |
| i53 + L67M two-hybrid fusion (designed binder) | 1.03 | 0.98 | 1.07 | 0.77 | 0.65 | 0.88 |  |  |  |
| i53 + L67S two-hybrid fusion (designed binder) | 1.18 | 1.15 | 1.2 | 0.94 | 1.24 | 0.63 |  |  |  |
| i53 + L67T two-hybrid fusion (designed binder) | 0.09 | 0.69 | -0.52 | 0.11 | -0.3 | 0.52 |  |  |  |

| Substance | Experiment 1 Average Enrichment [log2] | Experiment 1 Rep 1 Enrichment [log2] | Experiment 1 Rep 2 Enrichment [log2] | Experiment 2 Average Enrichment [log2] | Experiment 2 Rep 1 Enrichment [log2] | Experiment 2 Rep 2 Enrichment [log2] | Percent GFP Positive Rep 1 [%] | Percent GFP Positive Rep 2 [%] | Percent GFP Positive Rep 3 [%] |
| --- | --- | --- | --- | --- | --- | --- | --- | --- | --- |
| i53 + L67Y two-hybrid fusion (designed binder) | 0.14 | -0.58 | 0.86 | 0.58 | 0.5 | 0.65 |  |  |  |
| i53 + L73M two-hybrid fusion (designed binder) | 2.61 | 2.69 | 2.52 | 1.43 | 1.58 | 1.28 | 36.2 | 29.2 | 39.5 |
| i53 + M1F two-hybrid fusion (designed binder) | 0.8 | 0.71 | 0.9 | 0.36 | 0.39 | 0.33 |  |  |  |
| i53 + M1I two-hybrid fusion (designed binder) | 0.06 | 0.11 | 0.01 | 0 | -0.18 | 0.19 |  |  |  |
| i53 + M1N two-hybrid fusion (designed binder) | -0.25 | -0.37 | -0.13 | 0.02 | -0.04 | 0.08 |  |  |  |
| i53 + M1Q two-hybrid fusion (designed binder) | 1.31 | 1.23 | 1.38 | 0.68 | 0.58 | 0.79 |  |  |  |
| i53 + M1R two-hybrid fusion (designed binder) | 0.1 | -0.01 | 0.22 | 0.21 | 0.11 | 0.3 |  |  |  |
| i53 + M1S two-hybrid fusion (designed binder) | 0.38 | 0.55 | 0.21 | 0.34 | 0.27 | 0.41 |  |  |  |
| i53 + M1T two-hybrid fusion (designed binder) | 0.68 | 0.79 | 0.56 | 0.61 | 0.63 | 0.6 |  |  |  |
| i53 + M1W two-hybrid fusion (designed binder) | 1.83 | 1.95 | 1.71 | 0.96 | 0.99 | 0.92 |  |  |  |
| i53 + M1Y two-hybrid fusion (designed binder) | 2.36 | 2.56 | 2.16 | 1 | 1.18 | 0.81 |  |  |  |
| i53 + N25A two-hybrid fusion (designed binder) | 0.3 | 0.12 | 0.49 | 0.4 | 0.39 | 0.4 |  |  |  |
| i53 + N25C two-hybrid fusion (designed binder) | 0.13 | 0.45 | -0.19 | 0.26 | 0.31 | 0.21 |  |  |  |
| i53 + N25D two-hybrid fusion (designed binder) | 0.33 | 0.11 | 0.54 | 0.45 | 0.49 | 0.41 |  |  |  |
| i53 + N25E two-hybrid fusion (designed binder) | 0.56 | 0.28 | 0.84 | 0.62 | 0.61 | 0.64 |  |  |  |
| i53 + N25F two-hybrid fusion (designed binder) | 0.38 | 0.42 | 0.34 | -0.04 | 0.12 | -0.2 |  |  |  |
| i53 + N25G two-hybrid fusion (designed binder) | 0.71 | 1.06 | 0.35 | 0.38 | 0.57 | 0.19 |  |  |  |
